± gives the uncertainty stated by the source.
assay: amyloid nucleation score (Sup35N fusion, yeast selection) (log enrichment); library NNK1; higher = more nucleation; inactive = no reads after selection
Procedure, shortened: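 The nucleation score is a DiMSum log enrichment of output over input reads, centred on the mode score of non-aggregating sequences. Sequences under 100 input reads were excluded, and reads came from Illumina sequencing of plasmid inserts. Psi-negative yeast expressing Sup35N fused to peptides of 20 random codons were induced with 100 μM copper sulfate for 24 hours and grown 7 days at 30°C on medium lacking adenine and uracil. Random libraries had three technical output replicates.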

Row | Substance | amyloid nucleation score
1 | RCVETSFTSGFIVGELLMRM | -0.84 ± 1.3
2 | LHIVMLVLMASMEQTVTS | -1.11 ± 2.4
3 | AVKEGWLFSQVVVERGWNL | -0.588 ± 0.63
4 | VVEIWR | 0.655 ± 0.6
5 | TFGTKRRLGL | 1.47 ± 0.5
6 | NWGVSNRVVWGRVPMLSVPH | -0.284 ± 0.98
7 | NWVVFRMRHRLQTSFWGCGE | 0.123 ± 0.57
8 | SVYVGRGHFLQKFRRLLRFE | inactive
9 | ERMGDSQGPKAGLWSFKYP | -0.226 ± 0.97
10 | NMVGFILLGY | -0.179 ± 0.29
11 | SKAKYGESSVWRVGLMGCF | -1.06 ± 0.83
12 | INVFREAYIIYCRCEGSGGD | 7.507 ± 0.059
13 | LSYDEYPGMNASAAIQGLVV | -0.556 ± 1.4
14 | VFFSYINCLRF | 0.218 ± 0.45
15 | YSDCDGTMCYVDAYMCGYMA | 3.46 ± 0.077
16 | MPGLWVFASALTQQEGTLEM | -0.251 ± 0.79
17 | GQSYRRNIMCTSFLWLGNRN | 1.05 ± 0.53
18 | RTMEYAPGCLVAFDYK | 0.24 ± 0.44
19 | CIYIQYYLNLTVFCRVRLNA | -0.516 ± 1.7
20 | FAHHLYINRMSRFIDARVTI | 2.37 ± 0.13
21 | WTQAPDSAVGDGWGSNGSEA | 0.013 ± 0.47
22 | CLLHEASCGWFFGWFVRHT | 0.989 ± 0.28
23 | KANACGRFTN | 3.72 ± 0.1
24 | IFVVGAGLHDKTNGYVYRSR | 0.164 ± 0.24
25 | VFLVGMFLIRRVAVN | 0.72 ± 0.87

Row | Substance | amyloid nucleation score
26 | VSIFPFLTCLVVNLMLGGPV | 4.26 ± 0.11
27 | IFLGPVLFVGDTRFCHVLIN | 7.789 ± 0.049
28 | YCLQRQRRKGRSRSSMPEDE | 1.52 ± 0.52
29 | IASMSVFPSHMCFVGTSTVR | -0.417 ± 0.34
30 | CEKTWNLRDCSGLLQVTRG | 0.099 ± 0.29
31 | RFCSKRMRVLIFFGLV | -0.165 ± 0.34
32 | NSVIWRMG | 1.42 ± 0.3
33 | WGDLHRMVMISREVEPVSNI | -0.361 ± 0.78
34 | WHELRMCIVMDFLLMLQKMI | 1.79 ± 0.44
35 | VYLKKSLFL | -0.484 ± 0.9
36 | FDLTLCICCLRSECYYITPR | 8.732 ± 0.049
37 | VENTPSCSDISSDLMGREIH | -0.87 ± 0.35
38 | YWPPGFAVS | 1.01 ± 0.81
39 | LWKGATRCHKVLRMLENDND | -0.606 ± 0.9
40 | CMLLNWIPMRRARLTTFVGK | 0.433 ± 0.58
41 | VVQGVTCSLIMYSTRNCLFR | -0.444 ± 1.6
42 | KYVSYQGQVDCSCKSVL | -0.182 ± 0.45
43 | HSMVFNLEWFKARQDGDLN | 1.5 ± 0.34
44 | NVSSCDW | -1.22 ± 0.71
45 | WWNIEEM | -0.271 ± 0.24
46 | TDCSSLC | -0.373 ± 0.31
47 | CAAGARSSGEMAYIARMKAG | 0.482 ± 0.69
48 | QTHEYGLPRMIR | 0.884 ± 0.69
49 | ALILTVIDHVSAHYYVAEDV | 5.59 ± 0.081
50 | AKEVLYFR | 0.505 ± 0.24

Row | Substance | amyloid nucleation score
51 | VGFEGHS | -0.58 ± 0.6
52 | LSGPLNGEDFHRIFQVDFRW | 0.244 ± 0.79
53 | WIVCCMWVYVLSLQL | -1.06 ± 0.4
54 | VQGYKVRLSGRNFGCNCASK | -1.85 ± 1.8
55 | YLFSFWFPRYRHVIFIGYTL | 0.531 ± 0.53
56 | LSHLRSLYKGCSYRMHSWMY | 1.04 ± 0.58
57 | VMMRTSSARMGLLLDVTCGN | 0.058 ± 0.61
58 | VMADYVDNSHMVVMQTCVCM | 7.667 ± 0.061
59 | VVGSMVRSGLGPQPMTS | 1.08 ± 0.68
60 | LWGDYPFRDVPRTMVDQRRN | 0.079 ± 0.98
61 | CLKHLWLRQSKEKVD | inactive
62 | TVYYFG | 1.18 ± 0.19
63 | IHSGQAEMGTLRYHSNKCKD | -0.554 ± 1.7
64 | MNYVSMHDYYRVVH | 0.128 ± 0.61
65 | SLGVYGQGSGWMLVVNVWEV | 1.97 ± 0.24
66 | CRRIWA | -0.377 ± 0.34
67 | YTTIYLVIFSFC | 6.48 ± 0.068
68 | CMGLFVTSSL | 0.38 ± 1.2
69 | WIFQY | 1.43 ± 0.72
70 | LTWHRLSISHTVAYLSTDSI | inactive
71 | NWHAVNCRSPST | 1.07 ± 0.51
72 | LCRMFRIVAVGYMDQRCRT | 0.479 ± 0.49
73 | WCCGLCVLMQLNTVMLSKGL | 5.33 ± 0.066
74 | IINMGTYRSTMLNILLKEKC | 2.88 ± 0.27
75 | CDINLRKDTGISHLNGLFNA | 0.755 ± 0.43

Row | Substance | amyloid nucleation score
76 | LCALVRICFPMADYEGRGGC | 2.33 ± 0.14
77 | VCHAVRISISSSASTLAE | -0.122 ± 0.33
78 | DIHNRDCVLYDRLDRHVYMK | -0.083 ± 0.31
79 | CLRLVQEFTFMYTVVHGARC | 1.13 ± 0.71
80 | FYGTLVCVRRYSVVLNSNLE | 0.751 ± 0.93
81 | PRIRHHSLYCVVYWFIIDRT | inactive
82 | LAEHHWYWAEMIWSRGHEFT | 0.158 ± 0.44
83 | SVRGSYCYASLVCSDFL | -1.12 ± 0.84
84 | YYNRFILRSWEGSSMGLWSC | -0.582 ± 0.36
85 | RIGLWCACMCRATTPVRGIE | -0.317 ± 0.46
86 | YGFLNPTSSR | 0.632 ± 0.5
87 | ANWFL | 0.479 ± 0.45
88 | LILSSCHERGSGGVFWTDHV | 0.924 ± 0.64
89 | RTIIDESVTAFLIWFCYVTV | -0.21 ± 0.26
90 | EYNYLDDTCWLGQVGRWLWF | 1.38 ± 0.28
91 | FRELVDERLRRASQFHWFHF | 0.557 ± 0.8
92 | TKILRP | 0.33 ± 0.22
93 | LRSTLPADRRGLICFSHI | 0.528 ± 1
94 | VYEYFRLAGGAIQIAGIPVA | -0.002 ± 0.72
95 | MLWFSGCPRGGQRGVCESQG | 0.284 ± 0.55
96 | GWRSGVWLGSV | -1.32 ± 0.77
97 | SGVSVVEGYHRSRVACRSVM | -0.158 ± 0.52
98 | VSGTVLTIEYCPY | 0.844 ± 0.27
99 | VISGSDVLRYPRYSNAAFRT | inactive
100 | CRYTMGSNKVALFYGWMHPG | 0.726 ± 0.66

Row | Substance | amyloid nucleation score
101 | TFFCTYTYLWLICIIGQYYF | 3.44 ± 0.11
102 | DAMFLL | -0.358 ± 0.31
103 | YVWIRIVVVLVRRMCNTDTQ | inactive
104 | RFTLCCRMNGLVRYMSEN | inactive
105 | KLLPYMYCHYN | 1.27 ± 0.39
106 | FCDPVYMPSERFWNAYMCTL | 1.19 ± 0.9
107 | RRSISWNIRSEDLR | 0.85 ± 0.48
108 | LFYVMWWMAGVGLRRGYWAN | inactive
109 | VMRVAYNDT | 0.416 ± 0.36
110 | SRGITRQFESHTCAEHRCGS | -0.252 ± 0.97
111 | DIGRSAGRGVFVFSLLCNKW | 3.63 ± 0.18
112 | NIISEN | inactive
113 | AQNSWGGILSVTAGQEFYCL | -0.674 ± 1.7
114 | MYLCVRLGSIKYFSGVLWS | 0.056 ± 1.4
115 | PGLMDLSVCKKCWNCCYTYD | -0.294 ± 0.65
116 | NRSWYIRVLHRATSVSLKSF | -0.226 ± 0.39
117 | QSFSKKEESYILYITRVHEP | 0.88 ± 0.69
118 | FSLNQCVKGHVFGATICTLR | 1.86 ± 0.43
119 | EYIYNIAEWVD | -1.05 ± 0.79
120 | VLSAGVCFMTRVRSVFDGVH | 2.14 ± 0.24
121 | LDGTGWYCCQYSGGLYSLCG | -0.073 ± 0.31
122 | SYYRLGACSRCHYFFMIEAR | inactive
123 | YGLIGM | 0.24 ± 0.37
124 | SMSHVWL | -1.25 ± 1.5
125 | LTYCDIVLSMMSLDEKSDYD | inactive

Row | Substance | amyloid nucleation score
126 | CFSQPHGAVANHNAFSDNPW | -0.289 ± 0.39
127 | FCAEEGVTRLNPKL | -0.023 ± 0.47
128 | VGSTLYHLRKDMSTLSPGMY | 0.012 ± 0.34
129 | FPSLFFLLA | inactive
130 | SWSRRDVYKEGLDGGMGEGA | -1.07 ± 1.3
131 | VSRNIWYRWGNLLAVVKM | -0.025 ± 0.57
132 | PGSKAWFGSLISCLTPWVLR | -0.563 ± 0.85
133 | YLLCMGMVFSIGKFSSIPCP | inactive
134 | FLEFVWRALEM | -1.16 ± 0.86
135 | VVRPAPRDKPTGPSLCLWGN | 0.086 ± 0.42
136 | IFLYDRLNGDPFSSRW | 0.729 ± 0.9
137 | RSWVCSSGLMVLRWNGRSYF | inactive
138 | FNLGTNK | -0.442 ± 0.3
139 | RFYTYQNDVAGSDDKFSMLC | -0.232 ± 0.24
140 | CFDFYSYRVVSSAINYQFVM | -1.02 ± 0.39
141 | HRSRLFAISERFEDIFYI | 0.611 ± 0.78
142 | TNYDFMVCCFKPSMAYGKCM | -0.354 ± 0.63
143 | RVEFHGIR | 1.62 ± 0.32
144 | MDRNFSILTF | inactive
145 | TYNEDEVPCLMLASDVRFSS | 0.372 ± 0.64
146 | VNGWARSMGGFLSCNSQRFG | -0.221 ± 0.65
147 | SELFWMVGMGSLSSRYNSPF | 2.37 ± 0.087
148 | CDWSCSDSVCFITLCKYDDC | 6.921 ± 0.047
149 | DGSSLSPDPSLVWLKDM | -0.823 ± 0.55
150 | VYMSIRYRGSDNIRICVSVR | -0.13 ± 0.43

Row | Substance | amyloid nucleation score
151 | YLERIGATYMGG | 0.601 ± 0.4
152 | HAAEGIDESRKHSRHLIIVW | 0.029 ± 0.34
153 | TFTDS | 0.176 ± 0.75
154 | STFNFTRIASADMSGTSTIW | 0.505 ± 0.33
155 | HIYSRYQERRLVFVWYACND | 0.134 ± 0.38
156 | SMGRLP | -1.05 ± 1.5
157 | CLGAVIDSGNHSNSCYIRGD | 2.07 ± 0.67
158 | MRNYGILFPYLFYMSVSRVL | -0.067 ± 1.7
159 | SGMGMSPLMMIWCRSSNRDL | inactive
160 | GQTVNCNATYFSVTIVGIVG | 2.8 ± 0.13
161 | ASFSLDYSFQMPYILRWFIR | 1.03 ± 0.33
162 | HQVIQGVSYSTCG | 0.107 ± 0.38
163 | TNVVRVSLCFYMY | 8.776 ± 0.069
164 | VSPDYMSYCIGVYLINLISV | 0.354 ± 0.59
165 | TLLSVTYSCIRMPVPMAYRS | 4.42 ± 0.085
166 | DITNVAWNMPNTRCEPKPLK | 0.444 ± 1.2
167 | ASFQFSSCMCSLYAVFSRLL | 0.759 ± 0.44
168 | SACGVIRRLSAGYNCFYVK | 0.229 ± 0.51
169 | QMLQVPYQSFVALGVAWVRT | 0.646 ± 0.66
170 | SFVVHVICGHVCSWSFSVWF | 0.178 ± 0.33

Source: the supplement of paper PMC12042874
